# B1: N4 IgG (antibody, V domains shown)
# VH: VQLLEQSGPEVKKPGDSLRISCKMSGDSLVTTWIGWVRQKPGQGLEWMGIINPGDSSTNIYPGDSATRYGPSFQGQVTISIDKSTSTAYLQWNNVKASDTGIYYCARHVPVPISGTFLWREREMHDFGYFDDWGQGTLVIVSS
# VL: ELTLTQSPGTLSLSPGERATLSCRASQSVSNNYLAWYQQKPGQAPRLLIYGASSRATGIPDRFSGSGSGTGFTLIISRLEPEDFAVYYCQQYGSSSITFGQGTRLEIKR
# notes: also called IgG N4
# Columns and labels:
# Assay in all cases: ELISA, lectin-captured E1E2 lysate, Ab 1 ug/ml;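 further: E1E2 captured on Galanthus nivalis lectin-coated plates, bound test antibody read out by an HRP-linked secondary antibody and TMB colour development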
# [1] = biological target: E1E2 complex (H77) with E1 mutation N305A/N325A (HCV genotype 1a, isolate H77, UniProt P27958 192-383; P27958 384-746)
# [2] = biological target: E1E2 complex (H77) with E1 mutation S198A (HCV genotype 1a, isolate H77, UniProt P27958 192-383; P27958 384-746)
# [3] = biological target: E1E2 complex (H77) with E1 mutation Y201A (HCV genotype 1a, isolate H77, UniProt P27958 192-383; P27958 384-746)
# [4] = biological target: E1E2 complex (H77) with E1 mutation I212A (HCV genotype 1a, isolate H77, UniProt P27958 192-383; P27958 384-746)
# [5] = biological target: E1E2 complex (H77) with E1 mutation V227A (HCV genotype 1a, isolate H77, UniProt P27958 192-383; P27958 384-746)
# [6] = biological target: E1E2 complex (H77) with E1 mutation P228A (HCV genotype 1a, isolate H77, UniProt P27958 192-383; P27958 384-746)
# [7] = biological target: E1E2 complex (H77) with E1 mutation S236A (HCV genotype 1a, isolate H77, UniProt P27958 192-383; P27958 384-746)
# [8] = biological target: E1E2 complex (H77) with E1 mutation V246A (HCV genotype 1a, isolate H77, UniProt P27958 192-383; P27958 384-746)
# [9] = biological target: E1E2 complex (H77) with E1 mutation L258A (HCV genotype 1a, isolate H77, UniProt P27958 192-383; P27958 384-746)
# [10] = biological target: E1E2 complex (H77) with E1 mutation R259A (HCV genotype 1a, isolate H77, UniProt P27958 192-383; P27958 384-746)
# [11] = biological target: E1E2 complex (H77) with E1 mutation D263A (HCV genotype 1a, isolate H77, UniProt P27958 192-383; P27958 384-746)
# [12] = biological target: E1E2 complex (H77) with E1 mutation V266A (HCV genotype 1a, isolate H77, UniProt P27958 192-383; P27958 384-746)
# [13] = biological target: E1E2 complex (H77) with E1 mutation T292A (HCV genotype 1a, isolate H77, UniProt P27958 192-383; P27958 384-746)
# [14] = biological target: E1E2 complex (H77) with E1 mutation S294A (HCV genotype 1a, isolate H77, UniProt P27958 192-383; P27958 384-746)
# [15] = biological target: E1E2 complex (H77) with E1 mutation P295A (HCV genotype 1a, isolate H77, UniProt P27958 192-383; P27958 384-746)
# [16] = biological target: E1E2 complex (H77) with E1 mutation R296A (HCV genotype 1a, isolate H77, UniProt P27958 192-383; P27958 384-746)
# [17] = biological target: E1E2 complex (H77) with E1 mutation N196A/N234A (HCV genotype 1a, isolate H77, UniProt P27958 192-383; P27958 384-746)
# [18] = biological target: E1E2 complex (H77) with E1 mutation G311A (HCV genotype 1a, isolate H77, UniProt P27958 192-383; P27958 384-746)
# [19] = biological target: E1E2 complex (H77) with E1 mutation T314A (HCV genotype 1a, isolate H77, UniProt P27958 192-383; P27958 384-746)
# [20] = biological target: E1E2 complex (H77) with E1 mutation M322A (HCV genotype 1a, isolate H77, UniProt P27958 192-383; P27958 384-746)
# [21] = biological target: E1E2 complex (H77) with E1 mutation P341A (HCV genotype 1a, isolate H77, UniProt P27958 192-383; P27958 384-746)
# [22] = biological target: E1E2 complex (H77) with E1 mutation D346A (HCV genotype 1a, isolate H77, UniProt P27958 192-383; P27958 384-746)
binder,measurement,setting,value
B1,Binding relative to wt (%),[1],74%
same,Binding relative to wt (%),[2],78%
same,Binding relative to wt (%),[3],7%
same,Binding relative to wt (%),[4],51%
same,Binding relative to wt (%),[5],98%
same,Binding relative to wt (%),[6],38%
same,Binding relative to wt (%),[7],81%
same,Binding relative to wt (%),[8],97%
same,Binding relative to wt (%),[9],89%
same,Binding relative to wt (%),[10],102%
same,Binding relative to wt (%),[11],85%
same,Binding relative to wt (%),[12],92%
same,Binding relative to wt (%),[13],104%
same,Binding relative to wt (%),[14],71%
same,Binding relative to wt (%),[15],82%
same,Binding relative to wt (%),[16],138%
same,Binding relative to wt (%),[17],32%
same,Binding relative to wt (%),[18],87%
same,Binding relative to wt (%),[19],83%
same,Binding relative to wt (%),[20],143%
same,Binding relative to wt (%),[21],105%
same,Binding relative to wt (%),[22],83%

# Reference: US20110311550A1 (Scripps Research, published 2011)
